# Assays:
# [1] = biological target: the molecule itself; experiment: crystal structure; bLinS apo (25% w/v PEG3350) and co-crystallised with 2 mM FGPP (Morpheus D7, pH 7.5); space group I4, two molecules in the asymmetric unit
# [2] = biological target: the molecule itself; experiment: crystal structure; bCinS co-crystallised with 2 mM FNPP (Morpheus II A4, pH 6.5), also soaked with 2 mM FGPP; space group P1, two molecules in the asymmetric unit; interface analysed with PISA
Protein,binding result [1],stoichiometry N [2]
"linalool synthase from Streptomyces clavuligerus (enzyme, Streptomyces clavuligerus ATCC 27064, UniProt D5SL78 1-329, looked up) MQEFEFAVPAPSRVSPDLARARARHLDWVHAMDLVRGEEARRRYEFSCVADIGAYGYPHATGADLDLCVDVLGWTFLFDDQFDAGDGRERDALAVCAELTDLLWKGTAATAASPPIVVAFSDCWERMRAGMSDAWRRRTVHEWVDYLAGWPTKLADRAHGAVLDPAAHLRARHRTICCRPLFALAERVGGYEVPRRAWHSSRLDGMRFTTSDAVIGMNELHSFEKDRAQGHANLVLSLVHHGGLTGPEAVTRVCDLVQGSIESFLRLRSGLPELGRALGVEGAVLDRYADALSAFCRGYHDWGRGASRYTTRDHPGDLGLENLVARSSG",binds,–
"1,8-cineole synthase from Streptomyces clavuligerus (enzyme, Streptomyces clavuligerus ATCC 27064, UniProt B5GMG2 1-330, looked up) MPAGHEEFDIPFPSRVNPFHARAEDRHVAWMRAMGLITGDAAEATYRRWSPAKVGARWFYLAQGEDLDLGCDIFGWFFAYDDHFDGPTGTDPRQTAAFVNRTVAMLDPRADPTGEHPLNIAFHDLWQRESAPMSPLWQRRAVDHWTQYLTAHITEATNRTRHTSPTIADYLELRHRTGFMPPLLDLIERVWRAEIPAPVYTTPEVQTLLHTTNQNINIVNDVLSLEKEEAHGDPHNLVLVIQHERQSTRQQALATARRMIDEWTDTFIRTEPRLPALCGRLGIPLADRTSLYTAVEGMRAAIRGNYDWCAETNRYAVHRPTGTGRATTPW",–,2

# Reference: publication PMC5617326 (ACS Catalysis, 2017)
